The target of one assay is 8.3 TcR. The experiment in a line: tetramer staining of 8.3 TcR-transgenic NOD CD8+ T cells, flow cytometry.
Assay [1] has as its target human NKG2D (human) (UniProt P26718). The experiment in a line: cell-based or functional assay.
Assay [2] shares this target. Nature of the assay: flow cytometry on NKL cells stained on ice with biotinylated mAb, APC-streptavidin before culture (0 h).
For assay [3] the target is unchanged. The experiment in a line: flow cytometry on NKL cells stained on ice with biotinylated mAb, APC-streptavidin after 16 h of culture at 37° C.

UniProt P26718, sequence (P26718 whole entry T72A): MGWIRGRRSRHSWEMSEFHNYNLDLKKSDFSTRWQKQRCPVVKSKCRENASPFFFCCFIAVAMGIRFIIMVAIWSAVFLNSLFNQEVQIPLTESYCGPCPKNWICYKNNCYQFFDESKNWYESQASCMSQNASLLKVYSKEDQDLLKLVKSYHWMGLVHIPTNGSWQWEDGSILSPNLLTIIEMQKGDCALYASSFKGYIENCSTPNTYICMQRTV

In the assay with 8.3 TcR, “NRP-V7/H-2K^d tetramer (from UniProt P01902 22-305) (peptide-MHC)” yielded a percent of donor CD8+ T cells tetramer positive of more than 90%.
As to “mouse anti-human NKG2D mAb (R&D Systems clone 149810) (antibody)”, the decrease in expression of NKG2D on the cell surface with human NKG2D (human) [1] was found to be 67%. Moreover, the figures for the mean fluorescence intensity (arbitrary units) with human NKG2D (human) [2] and with human NKG2D (human) [3] were 186 and 61, respectively.

These data come from patent publication US20140120082A1.
